Test results taken from doi:10.1101/2022.12.06.519343.

Key:
[1] = biological target: T1, GFP-His6::sExu531 (Drosophila melanogaster); test: SEC; details: remark: other sources report otherwise
T1 chain: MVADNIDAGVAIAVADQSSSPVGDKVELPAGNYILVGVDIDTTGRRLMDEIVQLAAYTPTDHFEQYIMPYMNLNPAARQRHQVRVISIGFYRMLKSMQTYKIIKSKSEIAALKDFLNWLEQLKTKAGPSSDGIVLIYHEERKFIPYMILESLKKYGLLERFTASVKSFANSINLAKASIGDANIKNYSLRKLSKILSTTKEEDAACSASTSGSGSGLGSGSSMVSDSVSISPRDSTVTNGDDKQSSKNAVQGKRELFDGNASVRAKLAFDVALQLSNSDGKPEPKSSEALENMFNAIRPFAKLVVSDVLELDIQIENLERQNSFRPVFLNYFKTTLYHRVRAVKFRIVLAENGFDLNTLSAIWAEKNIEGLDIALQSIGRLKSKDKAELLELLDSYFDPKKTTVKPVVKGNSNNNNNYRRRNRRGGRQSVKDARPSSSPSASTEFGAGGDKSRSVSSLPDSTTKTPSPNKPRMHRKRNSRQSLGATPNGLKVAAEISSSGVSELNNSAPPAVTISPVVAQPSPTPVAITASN

[2] = biological target: T1, GFP-His6::sExu531 (Drosophila …); test: SEC; details: remark: other sources report otherwise

B1: GFP-His6::sExu531 (natural protein)
chain: MVADNIDAGVAIAVADQSSSPVGDKVELPAGNYILVGVDIDTTGRRLMDEIVQLAAYTPTDHFEQYIMPYMNLNPAARQRHQVRVISIGFYRMLKSMQTYKIIKSKSEIAALKDFLNWLEQLKTKAGPSSDGIVLIYHEERKFIPYMILESLKKYGLLERFTASVKSFANSINLAKASIGDANIKNYSLRKLSKILSTTKEEDAACSASTSGSGSGLGSGSSMVSDSVSISPRDSTVTNGDDKQSSKNAVQGKRELFDGNASVRAKLAFDVALQLSNSDGKPEPKSSEALENMFNAIRPFAKLVVSDVLELDIQIENLERQNSFRPVFLNYFKTTLYHRVRAVKFRIVLAENGFDLNTLSAIWAEKNIEGLDIALQSIGRLKSKDKAELLELLDSYFDPKKTTVKPVVKGNSNNNNNYRRRNRRGGRQSVKDARPSSSPSASTEFGAGGDKSRSVSSLPDSTTKTPSPNKPRMHRKRNSRQSLGATPNGLKVAAEISSSGVSELNNSAPPAVTISPVVAQPSPTPVAITASN
[1]
  stoichiometry N: > 3
[2]
  stoichiometry N: 3
